Test results as given in the supplement of paper PMC12042874.
± gives the uncertainty stated by the source.

assay: amyloid nucleation score (Sup35N fusion, yeast selection) (log enrichment); library NNK2; higher = more nucleation; inactive = no reads after selection
Summary of the method: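 Growth for 7 days at 30°C on medium lacking adenine and uracil followed a 24-hour induction with 100 μM copper sulfate of psi-negative yeast expressing peptides of 20 random codons fused to Sup35N. Input and output plasmid inserts were sequenced with Illumina, and sequences with under 100 input reads were excluded. Nucleation score is the DiMSum log enrichment of output over input reads, centred on the mode score of non-aggregating sequences.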

Compared with IDVSKCVLGKDSSLRGTNTR, VRQYPSTVPSLWLYVGSRH is higher in amyloid nucleation score: -0.595 ± 0.28 for the first, 4.19 ± 0.069 for the second.

First: IRVGICAVDGPACKRLYSCM
Second: SFCKCLVVALVDVWNRCLPW
The amyloid nucleation score of the first is lower: -0.176 ± 0.35 for the first, 4.68 ± 0.051 for the second.

LYHETAENSSRTQTTRRWSF and SLYVGFNRFFIRPVCCEVRG are within error of each other in amyloid nucleation score: -0.321 ± 1 for the first, -0.608 ± 1.1 for the second.

Compared with CCVMVELLVYFPM, EFRNLT is lower in amyloid nucleation score: 1.88 ± 0.098 for the first, -0.213 ± 0.18 for the second.

Going from SWSCMTRW to LKGQYWVLRKGGCEGGLSAG, the amyloid nucleation score falls from 5.464 ± 0.049 to 1.81 ± 0.45.

First: NYLLMR
Second: LAIDIMPFPCDTLS
The amyloid nucleation score of the first is higher: 0.414 ± 0.35 for the first, -0.289 ± 0.26 for the second.

Going from SYNKMMVDRFKYADLRDVRA to MNPYLVGPFERVV, the amyloid nucleation score falls from 1.03 ± 0.38 to 0.061 ± 0.33.

First: CVKQWRTIIVTLYLGTLPK
Second: VSTILYLDY
The amyloid nucleation score of the first is higher: 4.21 ± 0.059 for the first, 0.218 ± 1.1 for the second.

Going from GLLVSGMINWYRVFIRNILL to SAMSCPTKSAELRKCSYHPS, the amyloid nucleation score rises from -0.606 ± 0.38 to 0.246 ± 0.27.

Going from LANYYFYYKDDVWQVMLWCT to RFKWK, the amyloid nucleation score rises from -1.15 ± 0.36 to 3.67 ± 0.11.

First: SVFYVSKSSLTPDLDSVFLS
Second: DYTSVSMVIHVCKRL
The amyloid nucleation score of the first is lower: -0.376 ± 0.48 for the first, 5.59 ± 0.097 for the second.

Compared with KCYQSFNNADALM, IVHQGLLIRPIDGVGRLTLS is higher in amyloid nucleation score: -0.627 ± 0.33 for the first, 4.05 ± 0.1 for the second.

SHNGHVLVPNRVVSITSCHR and ENKGGCFARVDVGCVGSGMR are within error of each other in amyloid nucleation score: 0.147 ± 0.76 for the first, 0.014 ± 0.42 for the second.

Compared with WYMKILFGKRFSFGGVVSIF, VMGCFSIGGLGMGVPMVYSR is lower in amyloid nucleation score: 3.74 ± 0.11 for the first, 0.651 ± 0.44 for the second.

First: RYVVCNGRNLELLDFMNSRS
Second: CFCMINTCYSVINSFTYYGK
The amyloid nucleation score of the first is lower: -0.74 ± 1.1 for the first, 8.047 ± 0.066 for the second.

Compared with SFTYASSV, ERKHTFHAVGHGLQESLVRF is higher in amyloid nucleation score: -1.1 ± 0.28 for the first, -0.212 ± 0.45 for the second.

IRFNAYLRDEDYSKIREVLG and SLVIYV are within error of each other in amyloid nucleation score: -1.41 ± 0.54 for the first, -1.42 ± 0.62 for the second.

First: KLQFVGFCTNDAKYKGRIPG
Second: RRFVCRCFRYTHECVLGCFG
The amyloid nucleation score of the first is higher: 2.35 ± 0.089 for the first, 1.52 ± 0.33 for the second.

CLWSTN and PSLRV are within error of each other in amyloid nucleation score: 0.801 ± 0.58 for the first, 1.08 ± 0.42 for the second.

Going from CLNWKYKNRELQVFNDSRVV to EGICFLLMDCSCNNCFLALA, the amyloid nucleation score rises from -2.77 ± 0.75 to 4.66 ± 0.055.

Going from PSDTYNNDG to CIFFLVV, the amyloid nucleation score rises from 0.751 ± 0.58 to 4.79 ± 0.071.

First: YISVKMRSGRTSTLSDCVKA
Second: WEITLVNGSWVLESRTQRHF
The amyloid nucleation score of the first is lower: 3.83 ± 0.076 for the first, 4.06 ± 0.079 for the second.

GYAADLWWVLLFYERLVSGD and WHEWCEGCGRNCSWEVGQDR are within error of each other in amyloid nucleation score: 0.026 ± 0.49 for the first, 0.435 ± 0.23 for the second.

Going from CFVYLDLLYMEMMYHRQVAY to WLLVDYAASCRGKWCHEMHG, the amyloid nucleation score rises from -0.552 ± 0.34 to 0.284 ± 0.19.

SLGNVELRQ and RGVCLNNLMWGTLGTRKALL are within error of each other in amyloid nucleation score: -0.679 ± 0.29 for the first, -0.797 ± 1 for the second.

VCDFNVLDGCGNPGLL and SRPFMIYREYVASSIVSNQL are within error of each other in amyloid nucleation score: -0.67 ± 1.1 for the first, -0.606 ± 0.29 for the second.

Compared with SCGVDCSVSGC, CVGIFDNDICVEFMMALRLD is lower in amyloid nucleation score: 0.903 ± 0.57 for the first, -1.05 ± 0.64 for the second.

First: HSRHHWYPSWQFWMLRPQNC
Second: VIEYRVFRKYPCNCFLRGLS
The amyloid nucleation score of the first is higher: 1.4 ± 0.43 for the first, -0.865 ± 0.39 for the second.

First: LLFIICTDSFRLPTANGELY
Second: YDSTVFTITWAKWDVYSLST
The amyloid nucleation score of the first is lower: -1.17 ± 0.41 for the first, 2.36 ± 0.096 for the second.

LDYRWKTGGSLWGG and YYDLRAATESDVRHGTADHR are within error of each other in amyloid nucleation score: -0.578 ± 1.1 for the first, 0.195 ± 0.37 for the second.

VYIILSFSIGMGEFNMISGG and DMSSHGGWFRPRRFLEISPL are within error of each other in amyloid nucleation score: -0.587 ± 0.79 for the first, 0.183 ± 1 for the second.

Going from TDLYCFSSI to QFSLLDHITCQPLPTLFLS, the amyloid nucleation score rises from -1.29 ± 1 to 7.91 ± 0.065.

First: IWTTYFMGLRT
Second: YCALWTTTE
The amyloid nucleation score of the first is lower: -0.394 ± 0.78 for the first, 1.62 ± 0.18 for the second.

Going from ILLFQSAYHKSIEIWGNESF to HLRIGLIN, the amyloid nucleation score falls from 4.21 ± 0.043 to -0.467 ± 0.43.

Going from SFIHFPFWFILHNRALTRRV to GEQMWGYCRLYRGTGRGALG, the amyloid nucleation score rises from 0.057 ± 1.1 to 1.85 ± 0.16.

Going from IQKVVIVYSHDVYSDQ to RSAILEEDFDCHMYWGL, the amyloid nucleation score falls from 6.737 ± 0.048 to 0.916 ± 0.31.

First: GFGVPDWMFDSFSAAQLSQI
Second: MLDYFGLWSWARSSNYLEFK
The amyloid nucleation score of the first is higher: -0.343 ± 0.35 for the first, -1.09 ± 0.31 for the second.

VNECSFYIIPQTAQWCLVV and VCQRPEMVLNSIETLQPRWS are within error of each other in amyloid nucleation score: 0.086 ± 0.5 for the first, 0.211 ± 0.21 for the second.

First: SLDIDQTVRFTTK
Second: FRYIKPTCSFICLVRFVGDF
The amyloid nucleation score of the first is higher: 5.618 ± 0.036 for the first, -0.833 ± 1 for the second.

Compared with LMIVKMTMFDATGHVGFLMV, LCNGLFTFMEASSGRHAPQF is lower in amyloid nucleation score: 2.82 ± 0.071 for the first, 0.138 ± 0.76 for the second.

MMVYKGMPVLPCEYRVLY and YFWFYTV are within error of each other in amyloid nucleation score: -0.199 ± 0.36 for the first, -0.691 ± 0.34 for the second.

Compared with FWLNMYSVETVYGVVFAWEK, PDLMLPDRLDIERCLQVWD is higher in amyloid nucleation score: -0.694 ± 0.31 for the first, 0.049 ± 0.18 for the second.

Compared with MFVRRKSVSMVEYWE, QRARTRYGLRSLSYSAYIWS is higher in amyloid nucleation score: 0.054 ± 0.32 for the first, 0.807 ± 0.17 for the second.

ACSRANLAKKLRGMWRYSAF and VIMVTSPQFKKPKLYMDKRD are within error of each other in amyloid nucleation score: -0.199 ± 1.1 for the first, -1.03 ± 0.54 for the second.

QRFRHRKTQISVFS and NRKSSHYSKNCRTLLHTS are within error of each other in amyloid nucleation score: -0.876 ± 1.1 for the first, -0.097 ± 1.1 for the second.

FAHAIVSHDWDQRVRGWSGC and VTGDMTLFAWNLMGA are within error of each other in amyloid nucleation score: 0.836 ± 0.41 for the first, 0.625 ± 0.43 for the second.

Compared with YWIRIRIQCFQGSIEQDTER, YNSPSDWDTIISSIILF is lower in amyloid nucleation score: 4.96 ± 0.066 for the first, -1.21 ± 1.1 for the second.

First: CSAITGY
Second: TVFFIFHLLVYLPMFTRALD
The amyloid nucleation score of the first is lower: 0.564 ± 0.23 for the first, 8.55 ± 0.043 for the second.

Going from LVFTCGWSDTRE to SIYSSGNALTYQRIHNWVGI, the amyloid nucleation score falls from 5.08 ± 0.089 to -0.953 ± 0.44.

Going from SCVCVMSYQLNVWRKHDSCI to VHLSKDLCYLLSGYGYFPCF, the amyloid nucleation score falls from 4.606 ± 0.035 to -0.216 ± 0.36.

Going from VFFGVSNVVSATYSYWLRIQ to VMHSYDYVTMGFRSRTDPFR, the amyloid nucleation score rises from -0.627 ± 0.76 to 3.05 ± 0.14.

Compared with FFKLNVRERYWLVKGKSRFR, FDALY is lower in amyloid nucleation score: 2.96 ± 0.087 for the first, 0.025 ± 0.25 for the second.

Going from LLVAKYNLEYRMLSCSDNRQ to PLLTMWDLDSGVSGFCQVRS, the amyloid nucleation score falls from 3.1 ± 0.17 to -0.477 ± 0.35.

First: SVSETLWYDYIFKFVISVAN
Second: DNTLLALVGM
The amyloid nucleation score of the first is lower: -1.03 ± 0.63 for the first, 1.57 ± 0.58 for the second.

First: MLYSSR
Second: LHAGPDKSA
The amyloid nucleation score of the first is lower: -1.44 ± 0.44 for the first, 0.068 ± 0.46 for the second.

VYTFK and LAVHYHILRERTALCLGDHQ are within error of each other in amyloid nucleation score: 0.667 ± 0.66 for the first, -0.127 ± 1.1 for the second.

For KCHCRAMS, the amyloid nucleation score was “inactive”.
In the case of SSIWPIPFYILGVFKVSSVW, the amyloid nucleation score is reported as “inactive”.
With KIVSWAMIIARVVYCDQDL the amyloid nucleation score was “inactive”.
For DIIAPEKNFIIYY, the amyloid nucleation score was “inactive”.
In the case of DNYSRCGICWVSLRVLYVRR, the amyloid nucleation score is reported as “inactive”.
With FLMISWSLWGFFLY the amyloid nucleation score was “inactive”.
With CFRFLGREECKLTFGSDEMI the amyloid nucleation score was “inactive”.
In the case of ICKGVRKIWSFGDMSWCRES, the amyloid nucleation score is reported as “inactive”.
With SVLAFKSFGSHCIGYIYVNL the amyloid nucleation score was “inactive”.
In the case of YDRDCTRPCSPSSRGNFRDE, the amyloid nucleation score is reported as “inactive”.
In the case of SSSWSNTHRFCLRTL, the amyloid nucleation score is reported as “inactive”.
With QLFMNPDWNKRHYNELYSSG the amyloid nucleation score was “inactive”.
For FSNSHIVMVENLTDIVSVTT, the amyloid nucleation score was “inactive”.
With NLFYKKSLRLCYGLLQLRDF the amyloid nucleation score was “inactive”.
